Experiment [1] deals with SARS-CoV-2 Spike Trimer (B.1.1.529/Omicron) (SARS-CoV-2) (UniProt P0DTC2). Description: single-molecule force spectroscopy.
Experiment [2] concerns the target SARS-CoV-2 Spike protein Trimer (Wild type) (SARS-CoV-2) (UniProt P0DTC2). Description: single-molecule force spectroscopy.

For orientation: pIC50 means the IC50 on a negative log10 scale, so that one unit is a factor of ten. A lower pIC50 goes with a high IC50. What is called koff is a measure of how fast the partners let go of each other. One may read the kon as the second-order rate constant of association. A lower kon goes with slower complex formation.

pIC50: −log10 of the molar value.

Consider “H84T-banana lectin (H84T-BanLec) (from UniProt Q8L5H4 1-141) (designed binder)”, for which, in experiment [1], the pIC50 was 8.59. In experiment [2], this substance gave a negative logarithm of the IC50 (pIC50) of 8.28, a koff of 0.046 s⁻¹ and a kon of 99800 M⁻¹ s⁻¹.
